Laboratory results published in publication PMC9091222, “Profiling of hMPV F-specific antibodies isolated from human memory B cells” (Nature Communications, 2022).

Key:
[1] = molecular target: unprocessed hMPV PreF trimer (wild-type hMPV F ectodomain trimer, strain B2, C-terminal GCN4 trimerization … (Human metapneumovirus, subgroup B2 …, UniProt Q6W8S4, strain)); assay: cell-based or functional assay
[2] = molecular target: T1, processed stabilized hMPV PreF trimer (115BV), co-expressed with furin (Human metapneumovirus, subgroup B2 …, UniProt Q6W8S4, stabilised); assay: cryo-EM structure; M4B06 Fab incubated with processed PreF (115BV) trimer (trimer:Fab = 1:3) for 1 h at 4 °C, purified on Superdex 200 Increase in 25 mM HEPES pH 7.5, 150 mM NaCl; map at 3.75 Å, no symmetry imposed; Fab not built; conditions: both partners purified
T1 construct: F2 chain of the fusion (F) glycoprotein of human metapneumovirus, strain B2, after cleavage by co-expressed furin; disulfide-linked to F1; F1 chain (ectodomain part) of the fusion (F) glycoprotein of human metapneumovirus, strain B2, after cleavage by co-expressed furin; also called processed PreF; prefusion-stabilized hMPV F trimer 115BV; source: Expi293, co-transfected with furin at 1:1, …

B1: M4B06 IgG (antibody, V domains shown)
VH: EVQLLESGGGFVQPGGSLRLSCVVTGFTFSNYAMCWVRQAPGKGPEWVSGIGGSVGTTYYADSVKGRFTISRDNSKNTLYLQMSGLRAEDTARYYCAKVPSFFVFEDGFDMWGQGTVVTVSS
VL: QSVLTQPPSASGNPGQRVTISCYGSGSNIGNNYVHWFRQLPGTAPRLLIYNTDILVPGVPDRFSGSESGTSASLAISGLQSGDEADYFCAAWDDTLNGYVFGPGTTVTVL
neutralization IC50, hMPV A virus (plaque reduction neutralization assay) [1]: 3.5 ng/mL
neutralization IC50, hMPV B virus (plaque reduction neutralization assay) [1]: 2.2 ng/mL

B2: M4B06 Fab (Fab, V domains shown)
VH: B1 VH
VL: B1 VL
notes: as the heavy chain of m4 before CDR3 (germline IGHV3-23*01); heavy chain CDR3; rest of VH after CDR3 and CH1 of the Fab; as the light chain of m4 before CDR3 (germline IGLV1-44*01); light chain CDR3; as the light chain of m4 after CDR3; The Fab was not built in the cryo-EM density map; also called M4B06 monovalent Fab; source: recombinantly purified
stoichiometry N [2]: 3 Fabs per PreF trimer
